Assay results: PMC4829425

Legend:
[1] = target: full length wild-type human VEGFR-2 (human) (UniProt P35968)
[2] = target: VEGFR-2 EC+TM-(GGS)5-YFP or -mCherry (human) (UniProt P35968)
[3] = target: VEGFR-2 EC+TM-(GGS)5-YFP or -mCherry (human) (UniProt P35968); assay: FRET or BRET; QI-FRET in CHO plasma membrane-derived vesicles with 3 ug/ml VEGF-E, 1 hr at room temperature
[4] = target: VEGFR-2 EC+TM-(GGS)5-YFP or -mCherry (human) (UniProt P35968); assay: FRET or BRET; QI-FRET in CHO plasma membrane-derived vesicles with 3 ug/ml VEGF-A121, 1 hr at room temperature
[5] = target: VEGFR-2 EC+TM-(GGS)5-YFP or -mCherry (human) (UniProt P35968); assay: FRET or BRET; QI-FRET in CHO plasma membrane-derived vesicles with 3 ug/ml VEGF-D, 1 hr at room temperature
[6] = target: VEGFR-2 EC+TM-(GGS)5-YFP or -mCherry (human) (UniProt P35968); assay: FRET or BRET; QI-FRET in CHO plasma membrane-derived vesicles with 3 ug/ml VEGF-A165b, 1 hr at room temperature
[7] = target: VEGFR-2 EC+TM-(GGS)5-YFP or -mCherry (human) (UniProt P35968); assay: FRET or BRET; QI-FRET in CHO plasma membrane-derived vesicles with 3 ug/ml VEGF-C, 1 hr at room temperature
[8] = target: VEGFR-2 EC+TM-(GGS)5-YFP or -mCherry (human) (UniProt P35968); assay: FRET or BRET; QI-FRET in CHO plasma membrane-derived vesicles with 3 ug/ml VEGF-A165a, 1 hr at room temperature
[9] = target: VEGFR-2 EC(C482R)+TM(N762I-V769I-G770I)-(GGS)5-YFP or -mCherry (human) (UniProt P35968); assay: FRET or BRET; QI-FRET between YFP- and mCherry-tagged copies in single plasma membrane-derived vesicles of co-transfected CHO cells, no ligand; monomer-dimer equilibrium model, dimer to monomers; two-dimensional concentrations (receptors per square micron)
[10] = target: VEGFR-2 EC(C482R)+TM-(GGS)5-YFP or -mCherry (human) (UniProt P35968); assay: FRET or BRET; QI-FRET in CHO plasma membrane-derived vesicles with 3 ug/ml VEGF-A121, 1 hr at room temperature
[11] = target: VEGFR-2 EC(C482R)+TM-(GGS)5-YFP or -mCherry (human) (UniProt P35968); assay: FRET or BRET; QI-FRET between YFP- and mCherry-tagged copies in single plasma membrane-derived vesicles of co-transfected CHO cells, no ligand; monomer-dimer equilibrium model, dimer to monomers; two-dimensional concentrations (receptors per square micron)
[12] = target: VEGFR-2 EC+TM(N762I-V769I-G770I)-(GGS)5-YFP or -mCherry (human) (UniProt P35968); assay: FRET or BRET; QI-FRET in CHO plasma membrane-derived vesicles with 3 ug/ml VEGF-A121, 1 hr at room temperature
[13] = target: VEGFR-2 EC+TM(E764I-T771I-F778I)-(GGS)5-YFP or -mCherry (human) (UniProt P35968); assay: as above
[14] = target: VEGFR-2 EC+TM(E764I-T771I-F778I)-(GGS)5-YFP or -mCherry (human) (UniProt P35968); assay: FRET or BRET; QI-FRET between YFP- and mCherry-tagged copies in single plasma membrane-derived vesicles of co-transfected CHO cells, no ligand; monomer-dimer equilibrium model, dimer to monomers; two-dimensional concentrations (receptors per square micron)

human VEGF-D (from UniProt O43915 89-205) (ligand)
phosphorylation of full-length VEGFR-2 (Tyr 1175, Western blot) with 3 ug/ml ligand against no ligand [1]: < 10 fold | Intrinsic FRET of the EC+TM dimer (YFP/mCherry) with 3 ug/ml ligand; 0.61 without ligand [2]: 0.43

VEGFR-2 EC+TM-(GGS)5-YFP or -mCherry (from UniProt P35968 20-1356) (domain or fragment)
percent dimer [3]: 100% | percent dimer [4]: 100% | percent dimer [5]: 100% | percent dimer [6]: 100% | percent dimer [7]: 100% | percent dimer [8]: 100%

VEGFR-2 EC(C482R)+TM(N762I-V769I-G770I)-(GGS)5-YFP or -mCherry (from UniProt P35968 20-1356) (domain or fragment)
percent dimer [9]: 100%

human VEGF-C (from UniProt P49767 112-227) (ligand)
phosphorylation of full-length VEGFR-2 (Tyr 1175, Western blot) with 3 ug/ml ligand against no ligand [1]: < 10 fold | Intrinsic FRET of the EC+TM dimer (YFP/mCherry) with 3 ug/ml ligand; 0.61 without ligand [2]: 0.45

VEGFR-2 EC(C482R)+TM-(GGS)5-YFP or -mCherry (from UniProt P35968 20-1356) (domain or fragment)
percent dimer [10]: 100% | percent dimer [11]: 100%

VEGF-E (ligand)
phosphorylation of full-length VEGFR-2 (Tyr 1175, Western blot) with 3 ug/ml ligand against no ligand [1]: < 10 fold | Intrinsic FRET of the EC+TM dimer (YFP/mCherry) with 3 ug/ml ligand; 0.61 without ligand [2]: 0.44

VEGFR-2 EC+TM(N762I-V769I-G770I)-(GGS)5-YFP or -mCherry (from UniProt P35968 20-1356) (domain or fragment)
percent dimer [12]: 100%

VEGFR-2 EC+TM(E764I-T771I-F778I)-(GGS)5-YFP or -mCherry (from UniProt P35968 20-1356) (domain or fragment)
percent dimer [13]: 100% | percent dimer [14]: 100%
